Assay results: patent publication US11026972B2, “Methods for generating macrophages with enhanced cancer phagocytosis” (Georgia State University Research Foundation, Inc., priority 2016, dated 2021)

Key:
SIRPα = settings: following LPS stimulation; cited from earlier work
Syk = Syk phosphorylation at Y519/520 in PEMs; format: cell-based, mouse
Procedure: FIGS. 5A-5H include data related to our experiments on the role of Syk in phagocytic activation. […] PEMs were treated with LPS and cytokines in the presence of various inhibitors. After washing, inhibitor-free macrophages were tested for phagocytosis toward RBCs. […] PEMs treated with LPS and activating cytokines, or together with IL-10, were tested for total Syk and phosphorylated Syk (Syk^pY, specific at Y519/520). FIG. 5D describes PMA-induced macrophages phagocytosis toward RBCs. WT and SIRPα^−/− PEMs were treated with PMA (37° C., 30 min) before testing phagocytosis toward RBCs. FIG. 5E is a schematic depiction of PKC-Syk-mediated macrophage phagocytic activation toward self. […] Left: Inhibition of Syk by piceatannol and R406 prevented PMA-induced phagocytic activation. […] Error bars are ±SEM. ***P<0.001 vs. the respective controls. […] LPS-treated WT PEMs were further briefly treated with pervanadate before testing for phagocytosis toward RBCs. Error bars are ±SEM. ***P<0.001 vs. the respective controls. […] Data presented in each panel represent at least three independent experiments with n≥4, if applicable.
Multiple pharmacological inhibitors were tested for their effects on LPS and cytokine-induced activation of macrophage phagocytosis toward self. […] For example, inhibition of JAKs blocked IL-6 and IL-17, but not LPS and TNFα, for activation of PEM phagocytosis. […]

[1] = test system: CFSE-labeled CD47^+ or CD47^− RBCs in recipient mice; test: RBC adoptive transfer and in vivo clearance of CFSE-labeled RBCs; parameters: species or system mouse; settings: 24 h
Excerpt: FIGS. 2A-2E includes data related to macrophage phagocytosis in vivo assessed by adoptive transfer experiments. FIGS. 2A-C are illustrative graphs showing clearance of adoptively transferred CD47-positive (Cd47^+) or CD47-negative (Cd47^−) RBC in recipient mice. […] Error bars are ±SEM. **P<0.01, ***P<0.001 vs. WT mice clearance of Cd47^+ RBCs. […] Mice treated with DSS (1% for SIRPα^−/− mice, 2% for WT and Cd47^−/− mice) for 8 d (d8) were transfused with CFSE-RBCs followed by determination of RBC clearance after 24 h. FACS data of Cd47^+ RBCs and Cd47^− RBCs in different mice at 30 min and 24 h after transfer were selectively shown. Total RBC phagocytosis was calculated based on the rates of CFSE-RBC clearance and the fact that SIRPα^−/− mice eliminate both Cd47^− RBC and Cd47^+ RBC, whereas WT mice and Cd47^−/− mice eliminate only Cd47^− RBCs. […] Mice treated once with IL-17 (10 μg/kg, i.v.) were transfused with CFSE-labeled Cd47^+ or Cd47^− RBCs a day later. Error bars are ±SEM. **P<0.01, ***P<0.001 vs. control or the initial time point. Data presented in each panel represent at least three independent experiments with n≥4, if applicable.
Adoptive transfer and in vivo clearance: CD47-expressing (CD47^+) RBC freshly collected from WT or SIRPα^−/− mice, and CD47-null (CD47^−) RBC collected from CD47^−/− mice were labeled with carboxyfluorescein succinimidyl ester (CFSE). After washing, about 1×10^9 RBC suspended in 200 μl sterile PBS were transfused into recipient mice by intravenous (i.v.) injection. Blood samples (5 μl) were then collected 30 min after the blood transfusion and the CFSE-labeled RBC in the circulation was assessed by FACS analyses. Blood samples (5 μl each) were then collected at later time points to assess the clearance of CFSE-labeled RBC as compared to that found at 30 min. For each sample, at least 50,000 RBC were examined by FACS. […] Clearance of CFSE-labeled cells in the circulation and the spleen were analyzed by FACS analyses of blood samples and splenocytes. […]

B16 melanoma = B16 melanoma pulmonary metastases model; format: in vivo, mouse; settings: SIRPα^−/− mice
Procedure: Mouse models of B16 melanoma: B16-F10 melanoma cells (American Type Culture Collection) were cultured in DMEM with 8% FBS. B16 melanoma pulmonary metastases were established by intravenous (i.v.) injection of B16 cells (5×10^5, >95% viability) suspended in 100 μl PBS through the tail vein. The mice were allowed to live to reach humane endpoints or sacrificed on day 15 post B16 inoculation for analyses of melanoma formation in the lungs and other organs. To test macrophage eradication of B16 in vivo, recombinant murine IL-17 (20 μg) was given a day after the B16 implantation and then again two additional administrations three and six days later (total 3 administrations). For SIRPα^−/− mice survived first B16 injection, B16 cells (5×10^5) were injected (i.v.) once again three months without further IL-17 administration. […] For serum treatment, WT mice with B16 inoculation were given serum samples (150 μl, every three days, 3×) derived from control mice or B16-eradicated SIRPα^−/− mice. In other experiments, 2×10^7 splenocytes from control mice or B16-eradicated SIRPα^−/− mice were transferred into WT mice. After 10 days, B16 cells were inoculated into the recipient mice and melanoma development was examined.

lipopolysaccharide [LPS]
SIRPα expression in macrophages (SIRPα): decreased
Syk phosphorylation (Syk^PY, Y519/520) (Syk): increases in Syk^PY

B1: IL-17: recombinant murine cytokine interleukin IL-17 (also known as IL-17A), PeproTech (protein, UniProt Q62386 26-158, looked up)
Interleukin-17A: AAIIPQSSACPNTEAKDFLQNVKVNLKVFNSLGAKVSSRRPSDYLNRSTSPWTLHRNEDPDRYPSVIWEAQCRHQRCVNAEGKLDHHMNSVLIQQEILVLKREPESCPFTFRVEKMLVGVGCTCVASIVRQAA
clearance of transferred CD47^+ and CD47^− RBCs ([1]; SIRPα^−/− mice, 1% DSS for 8 d or directly injected with IL-17): ~50%
clearance of transferred RBCs ([1]; mutant mice treated with IL-17 multiple times and a longer period (d1 and d3)): < 5%
B16 melanoma (B16 melanoma): eliminated B16 melanoma
